Molecular target: heavy subunit of rat kidney gamma-glutamylcysteine synthetase (rat)

An Apparent Km for glutamate (mM), co-expressed recombinant holoenzyme of 1.8 mM and an Apparent Km for glutamate (mM), recombinant holoenzyme made by mixing the separately expressed subunits of 2.8 mM were found for “light subunit of rat kidney gamma-glutamylcysteine synthetase (enzyme)” in this work.

— patent US5747329
